US20250195685A1 (CAPSTAN THERAPEUTICS, published 2025)

Legend:
[1] = target: T1, human CD8αα homodimer, recombinant protein (Acro Biosystems) (human, UniProt P01732 22-182); assay: BLI steady state analysis of the data of FIG. 2D
T1 construct: also called CD8αα antigen; biotinylated CD8α recombinant protein (CDA-H82E3)
Experimental: The global fitting was performed with a 1:1 fitting model using GatorOne software as described below.
To assess affinity of whole antibodies, steady state analysis was used as the bivalent nature of both whole antibody and CD8α complicates kinetic analysis. 50 nM CD8α-His (that is, CD8α with a C-terminal oligohistidine tag; Acro) was immobilized on Ni-NTA sensor probes. Binding was analyzed with a three-fold antibody dilutions series: 60 nM, 20 nM, 6.67 nM, 2.22 nM, 0.74 nM, and 0.25 nM. The antigen-loaded sensors were incubated in the diluted solutions to capture the whole IgG antibody for 300 s to record the association phase. Sensors were incubated in the kinetic buffer for 900 s to record the dissociation phase. The spin speed was 1000 rpm for all steps except the antigen loading step which was 400 rpm to control density of the antigen. The temperature of the performed assays was at 30° C. during the association and dissociation phases. The sensor data were baseline subtracted and further analyzed in GatorOne software (version 2.10) to determine the equilibrium dissociation constants (KD) of the antibodies by fitting the signals of the steady states to the 1:1 binding model.

[2] = target: human CD8αβ heterodimer, recombinant protein (human, UniProt P01732 22-182; P10966 22-170, limits assumed); assay: SPR (Biacore 8K), antibody captured by anti-human Fc, CD8 as analyte, 1:1 fit, 25 °C
human CD8αβ heterodimer, recombinant protein, sequence (P01732 22-182 limits assumed, chain 1 of 2): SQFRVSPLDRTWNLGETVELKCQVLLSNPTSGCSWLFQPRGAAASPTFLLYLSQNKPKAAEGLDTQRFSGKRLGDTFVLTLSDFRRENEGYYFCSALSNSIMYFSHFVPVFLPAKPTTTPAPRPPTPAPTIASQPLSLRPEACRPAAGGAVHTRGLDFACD
human CD8αβ heterodimer, recombinant protein, sequence (P10966 22-170 limits assumed, chain 2 of 2): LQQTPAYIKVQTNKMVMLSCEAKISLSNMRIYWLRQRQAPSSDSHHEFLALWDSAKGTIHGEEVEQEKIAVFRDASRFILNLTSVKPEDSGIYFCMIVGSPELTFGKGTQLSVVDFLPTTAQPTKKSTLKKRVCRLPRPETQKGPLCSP
Experimental: (§1) Except for cynomolgus CD8αβ heterodimer, binding was analyzed with a two-fold dilution series of recombinant CD8αα homodimer or CD8αβ heterodimer protein from 200 nM to 6.25 nM. For cynomolgus CD8αβ heterodimer, binding was analyzed with a two-dilution series from 400 nM to 12.5 nM.. The global fitting was performed with a 1:1 fitting model using GatorOne software as described below.
(§2) Surface plasmon resonance (SPR) assays were performed using a Biacore 8K SPR instrument (Cytiva) in a running buffer containing 1×HBS-N(Cytiva) and 0.05% Tween-20 at 25° C. The CBD1033 antibody was captured by anti-human IgG (Fc) antibody (Cytiva) immobilized on a CM5 sensor chip (Cytiva) at a density within 40-50 and 80-100 response units (RU) for kinetic measurements with CD8αα and CD8αp, respectively. To measure the binding kinetics, serial two-fold dilutions of recombinant CD8 protein were prepared in the running buffer were injected into the flow cells at […], with the concentration ranging from 200 to 6.25 nM (successive 1:2 dilutions). The association data was collected for 180 s followed by a 1200 s dissociation step. At the end of each binding cycle, the sensor surface was regenerated with a 3M MgCl₂ buffer. For cynomolgus macaque CD8αβ heterodimer, the binding kinetics were assessed with the same experimental parameters, except the concentration ranges from 400 to 12.5 nM. Sensorgrams were generated, and background-subtracted with the blank running buffer. The binding kinetic parameters were analyzed and determined with a standard 1:1 monovalent binding (Langmuir) model using BIAcore Evaluation software (Cytiva).

[3] = target: T1, human CD8αα homodimer, recombinant …; assay: as above
Experimental: as §1, §2

[4] = target: T2, cynomolgus macaque CD8αβ heterodimer, recombinant protein (cynomolgus macaque); assay: as above
T2 construct: In BLI coupled directly to amine-reactive sensor tips; also called cynomolgus CD8αβ heterodimer
Experimental: as §1, §2

[5] = target: T3, cynomolgus macaque CD8αα homodimer, recombinant protein (cynomolgus macaque); assay: as above
T3 construct: also called cynomolgus CD8αα homodimer
Experimental: as §1, §2

[6] = target: T4, human CD8 on cells (CD8-overexpressing HEK293T cells, SupT1, HPB-ALL, human T cells, transfected HEK293 of … (human, UniProt P01732 22-235)); assay: flow cytometry on SupT1 cells; SupT1 cells
T4 construct: whole, on cells; also called cell surface CD8
T4 sequence (P01732 22-235): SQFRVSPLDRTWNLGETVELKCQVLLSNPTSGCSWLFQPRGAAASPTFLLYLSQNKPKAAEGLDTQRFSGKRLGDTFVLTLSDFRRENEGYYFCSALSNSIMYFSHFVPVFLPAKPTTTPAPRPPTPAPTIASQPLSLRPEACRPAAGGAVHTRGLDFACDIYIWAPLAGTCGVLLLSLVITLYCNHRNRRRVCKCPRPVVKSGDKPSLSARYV
Experimental: (§3) To obtain the results shown in FIG. 6, SupT1 (ATCC #CRL-1942) and HPB-ALL (DSMZ; ACC-483) were cultured in RPMI medium supplemented with 10% Fetal Bovine Serum (#97068-085; Avantor). To determine EC₅₀ values of cell binding from the anti-CD8α antibody, 2×10⁵ total cells were transferred to a V bottom 96-well culture plate (Corning). Cells were washed twice with Cell Staining buffer (#420201, Biolegend). The anti-CD8α antibody was diluted in four-fold antibody titration series from 60 μg/mL to […] into Cell Staining buffer. Cells were stained with each diluted antibody solution for 30 minutes on ice. Cells were then washed three times with Cell Staining buffer and primary antibody binding was detected by staining with anti-human Fc BV421 conjugate antibody (#410704, Biolegend) at 1:200 dilution for 30 minutes on ice. eFluor 780 Fixable Viability dye (eBioscience) at a 1:4000 dilution were also included in the detection antibody solutions. […] Flow cytometry data was analyzed by Flowjo 10 (Becton, Dickinson & Company) to measure the geometric median fluorescence intensity (gMFI) of the on-cell binding from each antibody. The gMFI values were normalized with the gMFI measured in the sample stained with only the secondary detection antibody and plotted against the concentration of the added antibodies. […]

[7] = target: T4, human CD8 on cells (CD8-overexpressing …); assay: flow cytometry on HPB-ALL cells; HPB-ALL cells
Experimental: as §3

[8] = target: T1, human CD8αα homodimer, recombinant …; assay: BLI, whole antibody

T1 sequence (P01732 22-182 limits assumed): as the sequence (P01732 22-182 limits assumed, chain 1 of 2) above

B1: CBD1033 whole antibody, human IgG1 with Fc-silencing mutations L234A, L235A and P329A (CBD1033-hIgG1-LALAPA) (antibody, V domains shown)
VH: QVQLVQSGAEVKKPGASVKVSCKASRYTFTDYNLHWVRQAPGQGLEWMGFIYPYNGGTGYAQKFQGRVTMTVDTSTSTAYMELSSLRSEDTAVYYCARDHRYNEGVSFDYWGQGTTVTVSS
VL: DIQLTQSPSSLSASVGDRATITCRASESVDGFGNSFMNWYQQKPGKAPKLLIYLASNLESGVPSRFSGSGSGTDFTLTISSVQPEDFATYYCQQNNEDPYTFGQGTKLEIKR
notes: On tLNPs the antibody was SATA-modified or AJICAP-thiolated (CBD1033.29) and conjugated to the LNP; also called CBD1033.3; CBD1033 IgG1
- Kd [1]: 2.27 nM
- Kd [2]: 8.99 nM
- koff [2]: 0.00111 s⁻¹
- kon [2]: 124000 M⁻¹ s⁻¹
- Kd [3]: 2.46 nM
- koff [3]: 0.000289 s⁻¹
- kon [3]: 117000 M⁻¹ s⁻¹
- Kd [4]: 31 nM
- koff [4]: 0.00114 s⁻¹
- kon [4]: 36800 M⁻¹ s⁻¹
- Kd [5]: 5.43 nM
- koff [5]: 0.000271 s⁻¹
- kon [5]: 50000 M⁻¹ s⁻¹
- EC50 [6]: 0.312 µg/mL
- EC50 [7]: 0.274 µg/mL
- koff [8]: 0.00307 s⁻¹
- kon [8]: 1.85e+06 M⁻¹ s⁻¹
